Measurements taken from patent US20160177307.
pKd: −log10 of the molar value.

Test system: T1, VEGF-121 (Homo sapiens), P15692-9
T1 sequence: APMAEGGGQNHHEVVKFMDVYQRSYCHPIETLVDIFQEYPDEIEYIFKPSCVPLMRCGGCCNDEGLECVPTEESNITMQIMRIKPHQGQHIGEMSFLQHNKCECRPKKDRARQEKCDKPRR
Experiment: filter

[1] = as 4867-31_192, PS 3' of 17 as printed, 3' inverted dT

CCGTTCAAGTGCTTGTAGGATTTAAATGG [4867-31_438]
pKd (as 4867-31_192, PS 3' of 6, 3' inverted dT): 10.89

AGCCGTTCAAGTGCTTGTAGGATTTAAATGGA [4867-31_90]
pKd (P=Nap-dU, 2'-OMe A26): 8.55

AGCCGTTCAAGTGCTTGTAGGATTTAAATGGA [4867-31_68]
pKd (P=Nap-dU, 2'-OMe C4 (inferred, superscript lost)): 8.12

CCCTCCATCAGCCGTTCAAGTGCTTGTAGGATTTAAATGAATTGGAGGA [4867-15_62]
pKd (P=Nap-dU, C3 spacer at 39): 7.28

AGCCGTTCAAGTGCTTGTAGGATTTAAATGGA [4867-31_96]
pKd (P=Nap-dU, 2'-OMe A32): 9.89

CCCTCCATCAGCCGTTCAAGTGCTTGTAGGATTTAAATGGAATTGGGGA [4867-15_70]
pKd (P=Nap-dU, C3 spacer at 47): 9.17

CCTCCATCAGCCGTTCAAGTGCTTGTAGGATTTAAATGGAATTGGAGGA [4867-15_24]
pKd (P=Nap-dU, C3 spacer at 1): 9.96

CCGTTCAAGTGCTTGTAGGATTTAAATGG [4867-31_476]
pKd (as 4867-31_192, 2'-OMe 1, PS 26, printed 2.1-11): 10.68

CCGTTCAAGTGCTTGTAGGATTTAAATGG [4867-31_161]
pKd (2'-OMe-NapU at 22, other P are NapdU, target taken as VEGF-121): 10.19

CCGTTAAAGTGCTTGTAGGATTTAAATGGA [4867-31_145]
pKd (P=Nap-dU): 8.51

CCCTCCATCACCGTTCAAGTGCTTGTAGGATTTAAATGGAATTGGAGGA [4867-15_34]
pKd (P=Nap-dU, C3 spacer at 11): 9.85

CCGTTCAAGTGCTTGTAGGATTTAAATGG [4867-31_425]
pKd (as 4867-31_192, PS 3' of 22 or 23 (printed P1-P2), 3' inverted dT): 10.80

AGCCGTTCAAGTGCTTGTAGGATTTAAATGGA [4867-31_72]
pKd (P=Nap-dU, 2'-OMe C8 (inferred, superscript lost)): 9.68

CCGTTCAAGTGCTTGTAGGATTTAAATGG [4867-31_439]
pKd (as 4867-31_192, PS 3' of 9, 3' inverted dT): 10.62

CCGTTCAAGTGCTTGTAGGATTTAAATGG [4867-31_481]
pKd (as 4867-31_192 plus 2'-OMe C1 and PS 3' of A24,A25,A26, 3'-idT): 10.59

AGCCGTTCAAGTGCTTGTAGGATTTAAATGGA [4867-31_95]
pKd (P=Nap-dU, 2'-OMe G31): 9.72

CCCTCCATCAGCCGTTCAAGTGCTTGTAGGATTTAAATGGATTGGAGGA [4867-15_64]
pKd (P=Nap-dU, C3 spacer at 41): 9.66

CCGTTCAAGTGCTTGTAGGATTTAAATGG [4867-31_445]
pKd (as 4867-31_192, PS 3' of 29, 3' inverted dT): 11.00

AGCCGTTCAAGTGCTTGTAGGATTTAAATGGA [4867-31_83]
pKd (P=Nap-dU, 2'-OMe A19): 10.00

CCCTCCACAGCCGTTCAAGTGCTTGTAGGATTTAAATGGAATTGGAGGA [4867-15_31]
pKd (P=Nap-dU, C3 spacer at 8): 10.02

AGCCGTTAAGTGCTTGTAGGATTTAAATGGA [4867-31_101]
pKd (P=Nap-dU): 8.23

CCGTTCAAGTGCTTGTAGGATTTAAATGG [4867-31_477]
pKd (as 4867-31_192, 2'-OMe 1, PS 25,26): 10.62

CCGTTCAAGTGCTTTAGATTTAAATGG [4867-31_184]
pKd (NapdU at P, C3 spacer 15,18, 2'-OMe 9,17): 10.08

AGCCGTTCAAGTGCTTGTAGGATTTAAATGGA [4867-31_73]
pKd (P=Nap-dU, 2'-OMe A9): 8.22

CCGTTCAAGTGCTTGTAGGATTTAAATGG [4867-31_154]
pKd (NapdU at P, 2'-OMe 4): 8.23

CCGTTCAAGTGCTTGTAGGATTTAAATGG [4867-31_143]
pKd (NapdU at 4,5,10,13,14,16,21,22,23,27, rest DNA, SB18T, 37 C, Table 13 gives 0.14 nM): 9.77

CCGTTCAAGTGCTTGTAGGATTTAAATGG [4867-31_479]
pKd (as 4867-31_192, 2'-OMe 1, PS 24): 10.59

GCCGTTCAAGTGCTTGTAGGATTTAAATGG [4867-31_144]
pKd (NapdU at P): 9.70

CCGTTCAAGTGCTTGTAGGATTTAAATGG [4867-31_442]
pKd [1]: 10.82

CCGTTCAAGTGCTTTAGGATTTAAATGG [4867-31_189]
pKd (NapdU at P, C3 spacer 15, 2'-OMe 9,17,18,25,28,29 as printed): 9.05

CCCTCCATAGCCGTTCAAGTGCTTGTAGGATTTAAATGGAATTGGAGGA [4867-15_32]
pKd (P=Nap-dU, C3 spacer at 9): 10.10

CCGTTCAAGTGCTTGTAGGATTTAAATGG [4867-31_441]
pKd [1]: 10.77

CCCTCATCAGCCGTTCAAGTGCTTGTAGGATTTAAATGGAATTGGAGGA [4867-15_29]
pKd (P=Nap-dU, C3 spacer at 6): 9.70

CCCTCCATCAGCCGTTCAGTGCTTGTAGGATTTAAATGGAATTGGAGGA [4867-15_42]
pKd (P=Nap-dU, C3 spacer at 19): 7.51

AGCCGTTAAGTGCTTGTAGGATTTAAATGGA [4867-31_97]
pKd (P=Nap-dU, C3 spacer at 8): 8.14

CCGTTCAAGTGCTTGTAGGATTTAAATGG [4867-31_163]
pKd (NapdU at P, 2'-OMe 27): 9.59

CCGTTCAAGTGCTTGTAGGATTTAAATGG [4867-31_409]
pKd (as 4867-31_192, PS 3' of 1, 3' inverted dT): 10.96

AGCCGTTCAAGTGCTTGTAGGATTTAAATGGA [4867-31_67]
pKd (P=Nap-dU, 2'-OMe C3 (inferred, superscript lost)): 9.48

CCGTTCAAGTGCTTGTAGGATTTAAATGG [4867-31_482]
pKd (as 4867-31_192, PS 24,25,26): 10.62

AGCCGTTCAAGTGCTTGTAGGATTTAAATGGA [4867-31_92]
pKd (P=Nap-dU, 2'-OMe A28): 8.05

CCGTTCAAGTGCTTGTAGGATTTAAATGG [4867-31_416]
pKd (as 4867-31_192, PS 3' of 10, 3' inverted dT): 11.03

CCTCCATCAGCCGTTCAAGTGCTTGTAGGATTTAAATGGAATTGGAGGA [4867-15_26]
pKd (P=Nap-dU, C3 spacer at 3): 9.70
